Results taken from paper PMC6249844 (Molecular Biology of the Cell, 2018).

B1: GFP-tagged SNX-BAR complex (Vps5-Vps17 heterodimer with Vps17-GFP) (complex)
chain 1: MDYEDNLEAPVWDELNHEGDKTQSLVSNSIESIGQISTNEERKDNELLETTASFADKIDLDSAPEWKDPGLSVAGNPQLEEHDNSKADDLINSLAPEQDPIADLKNSTTQFIATRESGGALFTGNANSPLVFDDTIYDANTSPNTSKSISGRRSGKPRILFDSARAQRNSKRNHSLKAKRTTASDDTIKTPFTDPLKKAEKENEFVEEPLDDRNERRENNEGKFTASVEKNILEQVDRPLYNLPQTGANISSPAEVEENSEKFGKTKIGSKVPPTEKAVAFKVEVKDPVKVGELTSIHVEYTVISESSLLELKYAQVSRRYRDFRWLYRQLQNNHWGKVIPPPPEKQSVGSFKENFIENRRFQMESMLKKICQDPVLQKDKDFLLFLTSDDFSSESKKRAFLTGSGAINDSNDLSEVRISEIQLLGAEDAAEVLKNGGIDAESHKGFMSISFSSLPKYNEADEFFIEKKQKIDELEDNLKKLSKSLEMVDTSRNTLAASTEEFSSMVETLASLNVSEPNSELLNNFADVHKSIKSSLERSSLQETLTMGVMLDDYIRSLASVKAIFNQRSKLGYFLVVIENDMNKKHSQLGKLGQNIHSEKFREMRKEFQTLERRYNLTKKQWQAVGDKIKDEFQGFSTDKIREFRNGMEISLEAAIESQKECIELWETFYQTNL
chain 2: MTSAVPYDPYDDLDNNPFAEPQEEDSEPAATTTDGSSSMSEERVGTEQTAASVQDNGTANNIQNGLGEEGNATRSKTSNEHNENQQPSQPSERVILPERSDEKKKYTLLAKVTGLERFGSATGKKENPTIIFDCSTNLPTFRKQQYKNVKKSYEEFHQLFKYLNVAIQESFVPTLPSAYTTFGINSEEDRMKVTRNFQLWFNRLSQDPLIIRNEEVAFFIESDFNTYTPINKSKSLASGLKRKTLKQLAPPYDEITELAEFRPLVKSIYVVSQSLQEKLLRVSRNRKMMVQEENAFGQDFVNLDEHNKLYRRYGKILTAVGDIDSIIATMDMATLYDGLEWIVRDAYAVKEALTNRHFIMRNLVQAQQNSKAKQEQARRFRSRRDINPMKIDEALRQLKAAAKNEQVLTLKLQRITSNMIIERKQWISWYEEWIRSSIKEFTLRKIEYERKKLTLLERVRSDIRKADENGGLSRLGRHAVSNNNSDTSQTLKGDSWTGESNRKSQIPINKIAHTEFDDELFTEDDGYNSQDSDTTSLNARHAASLLGMSTK
B2: SNX-BAR complex without GFP tag (Vps5-Vps17 heterodimer) (complex)
chain 1: B1 chain 1
chain 2: B1 chain 2
B3: Snx3-mGFP (His-SUMO-Snx3-mGFP) (natural protein)
chain: MPREFKSFGSTEKSLLSKGHGEPSYSEIYAEPENFLEIEVHNPKTHIPNGMDSKGMFTDYEIICRTNLPSFHKRVSKVRRRYSDFEFFRKCLIKEISMLNHPKVMVPHLPGKILLSNRFSNEVIEERRQGLNTWMQSVAGHPLLQSGSKVLVRFIEAEKFVG

Target: RFP-tagged cargo selection complex (Vps35, Vps26, Vps29-RFP) (S. cerevisiae, UniProt P34110;P40335;P38759)
Test: recruitment to giant unilamellar vesicles

Sequence of RFP-tagged cargo selection complex (Vps35, Vps26, Vps29-RFP) (P34110 whole entry, chain 1 of 3): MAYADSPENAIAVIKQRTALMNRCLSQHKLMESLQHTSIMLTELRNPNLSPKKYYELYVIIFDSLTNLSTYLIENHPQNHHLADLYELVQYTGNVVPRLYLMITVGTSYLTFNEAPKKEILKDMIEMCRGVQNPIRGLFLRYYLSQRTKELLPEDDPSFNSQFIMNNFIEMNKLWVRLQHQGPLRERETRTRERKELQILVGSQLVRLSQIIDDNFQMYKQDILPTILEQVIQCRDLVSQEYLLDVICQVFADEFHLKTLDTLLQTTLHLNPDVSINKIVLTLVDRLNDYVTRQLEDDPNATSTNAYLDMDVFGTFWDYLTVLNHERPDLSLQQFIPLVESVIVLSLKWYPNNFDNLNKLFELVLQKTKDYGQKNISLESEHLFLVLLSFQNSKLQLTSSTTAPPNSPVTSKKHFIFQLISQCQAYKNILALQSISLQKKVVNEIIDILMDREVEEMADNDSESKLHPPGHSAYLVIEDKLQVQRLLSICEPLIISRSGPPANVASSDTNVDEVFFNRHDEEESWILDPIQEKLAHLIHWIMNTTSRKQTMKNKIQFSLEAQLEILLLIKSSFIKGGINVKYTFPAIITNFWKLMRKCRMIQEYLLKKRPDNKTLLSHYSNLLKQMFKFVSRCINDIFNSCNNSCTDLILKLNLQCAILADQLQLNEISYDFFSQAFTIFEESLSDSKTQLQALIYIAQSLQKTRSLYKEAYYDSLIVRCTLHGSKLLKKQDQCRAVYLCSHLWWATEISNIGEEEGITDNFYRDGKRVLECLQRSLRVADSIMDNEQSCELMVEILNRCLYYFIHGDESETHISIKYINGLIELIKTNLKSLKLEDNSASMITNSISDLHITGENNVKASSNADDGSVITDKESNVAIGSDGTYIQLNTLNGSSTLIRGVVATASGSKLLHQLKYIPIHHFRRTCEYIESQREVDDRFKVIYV
Sequence of RFP-tagged cargo selection complex (Vps35, Vps26, Vps29-RFP) (P40335 whole entry, chain 2 of 3): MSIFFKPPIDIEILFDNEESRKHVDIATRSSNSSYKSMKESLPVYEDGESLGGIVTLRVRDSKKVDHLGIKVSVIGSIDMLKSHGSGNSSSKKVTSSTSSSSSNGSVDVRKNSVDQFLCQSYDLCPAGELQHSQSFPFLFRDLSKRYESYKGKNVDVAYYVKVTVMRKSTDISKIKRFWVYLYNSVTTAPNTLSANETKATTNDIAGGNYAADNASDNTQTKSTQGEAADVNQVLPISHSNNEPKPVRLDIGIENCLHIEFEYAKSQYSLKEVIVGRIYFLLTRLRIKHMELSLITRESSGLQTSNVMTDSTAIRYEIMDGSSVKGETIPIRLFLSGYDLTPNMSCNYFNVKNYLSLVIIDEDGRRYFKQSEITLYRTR
Sequence of RFP-tagged cargo selection complex (Vps35, Vps26, Vps29-RFP) (P38759 whole entry, chain 3 of 3): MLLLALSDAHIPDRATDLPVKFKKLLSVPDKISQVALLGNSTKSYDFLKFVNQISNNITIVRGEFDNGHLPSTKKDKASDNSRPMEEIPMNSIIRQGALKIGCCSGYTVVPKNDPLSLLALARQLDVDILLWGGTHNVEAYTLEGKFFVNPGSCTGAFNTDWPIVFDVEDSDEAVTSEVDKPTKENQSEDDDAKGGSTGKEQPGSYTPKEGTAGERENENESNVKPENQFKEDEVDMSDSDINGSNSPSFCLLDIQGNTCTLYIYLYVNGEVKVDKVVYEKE

Row | binding result | Binder
1 | binds | B1
2 | binds | B2
3 | binds | B3
